Assay results reported in patent US20060106200A1.

Molecular target: full length, processed caspase-9 (residues 1-416) (UniProt P55211)
Test: gel filtration chromatography of equi-molar Apaf-1 (1-591) and caspase-9

full length, processed caspase-9 (residues 1-416), sequence (P55211 whole entry, form in doubt, the tested form may be a part): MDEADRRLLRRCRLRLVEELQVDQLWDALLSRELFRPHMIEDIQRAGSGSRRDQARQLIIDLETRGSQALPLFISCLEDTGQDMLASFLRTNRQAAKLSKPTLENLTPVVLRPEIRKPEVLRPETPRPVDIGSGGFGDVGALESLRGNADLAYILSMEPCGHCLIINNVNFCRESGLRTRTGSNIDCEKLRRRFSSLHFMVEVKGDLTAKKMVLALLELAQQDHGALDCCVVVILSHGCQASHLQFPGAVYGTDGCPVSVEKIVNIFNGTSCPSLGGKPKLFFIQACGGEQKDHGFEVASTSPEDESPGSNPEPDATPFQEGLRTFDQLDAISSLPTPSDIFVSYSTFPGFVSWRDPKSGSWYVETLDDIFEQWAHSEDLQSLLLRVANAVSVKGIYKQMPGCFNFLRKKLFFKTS

For “soluble Apaf-1 fragment (residues 1-591 of full length Apaf-1) (from UniProt O14727 1-591)”, the apparent molecular mass of the complex peak on gel filtration was 130 kilodaltons.
